This is an account of results in US11028167 (CENTIVAX, dated 2021).

Holding throughout (assay): SPR, scFv captured by anti-V5, RBD analyte
(In SPR one partner is held on a chip, and binding of the other changes the refractive index at the surface.)

Assay [1] addresses SARS-CoV-1 Receptor Binding Domain (RBD) protein (SARS-CoV-1, UniProt P59594 306-527).
Assay [2] has as its target MERS Receptor Binding Domain (RBD) protein (Middle East Respiratory Syndrome (MERS) …, UniProt K9N5Q8 367-606).
Assay [3] concerns the target T1, SARS-CoV-2 Receptor Binding Domain (RBD) protein (SARS-CoV-2, UniProt P0DTC2 319-541).
Assay [4] deals with T1, SARS-CoV-2 Receptor Binding Domain …. This is another data set of the same source.

Like-named read-outs stand apart in the source and are kept apart here.

B1: COVID19_P06_F03 (scFv, V domains shown)
VH: QVQLVQSGAEVKKPGASVKVSCKASGYTFTSYSMHWVRQAPGQGLEWMGAIYPGNSDTTYAQKFQGRVTMTRDTSTSTVYMELSSLRSEDTAVYYCTLDGIPQLLRTLDYWGQGTLVTVSS
VL: DIQMTQSPSSLSASVGDRVTITCRASQSISSYLNWYQQKPGKAPKLLIYGVSSLHSGVPSRFSGSGSGTDFTLTISSLQPEDFATYYCLQYVSYPWTFGGGTKVEIKR
Regarding B1, the binding result in assay [1] is “no binding (tested: 300 nM)”. For the same molecule, the binding result in assay [2] is recorded as “no binding (tested: 300 nM)”. In assay [3], the dissociation constant Kd (as a rule, the concentration at which binding is half-saturated) is 32.6 nM; the dissociation rate constant (koff) (in general, the first-order rate constant of dissociation) stood at 0.00532 s⁻¹; the on-rate constant (kon) (usually the rate constant with which the complex forms) was determined as 163000 M⁻¹ s⁻¹.

B2: COVID19_R02_C12 (scFv, V domains shown)
VH: QVQLVQSGAEVKKPGASVKVSCKASGYTFTSYDINWVRQAPGQGLEWMGMVDPNSGNTYYAQKFQGRFTMTRDTSTSTVYMELSSLRSEDTAVYYCTREGIPQLLGTLDYWGQGTLVTVSS
VL: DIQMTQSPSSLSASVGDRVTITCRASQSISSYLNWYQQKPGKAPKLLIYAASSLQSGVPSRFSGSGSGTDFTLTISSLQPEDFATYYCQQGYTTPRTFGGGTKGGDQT
B2: the binding result in assay [1] was “no binding (tested: 300 nM)”. In assay [2], the binding result was “no binding (tested: 300 nM)”. In assay [3], this molecule gave a Kd of 8.2 nM, a koff of 0.00059 s⁻¹ and a kon of 72000 M⁻¹ s⁻¹.

B3: COVID19_R02_B08 (scFv, V domains shown)
VH: QVQLVQSGAEVKKPGASVKVSCKASGYTFTSYYIHWVRQAPGQGLEWMGIINPRGGSTSYAQKFQGRVTMTRDTSTSTVYMELSSLRSEDTAVYYCTREAKPQLLRTLDYWGQGTLVTVSS
VL: DIQMTQSPSSLSASVGDRVTITCRASQGIDTYLNWYQQKPGKAPKLLIYKASSLESGVPSRFSGSGSGTEFTLTINSLQPEDIATYYCQQYDNLPLTFGGGTKVEIKR
With B3, the equilibrium dissociation constant (Kd) in assay [4] is 166 nM.

B4: COVID19_R02_A12 (scFv, V domains shown)
VH: QVQLVQSGAEVKKPGASVKVSCKASGYTFTENEMHWVRQAPGQGLEWMGIINTSGGYTNYAQKFQGRVTMTRDTSTSTVYMELSSLRSEDTAVYYCTREGIPQLLRTLDYWGQGTLVTVSS
VL: DIQMTQSPSSLSASVGDRVTITCRASQSISSWLAWYQQKPGKAPKLLIYAASSLQSGVPSRFSGSGSGTDFTLTISSLQPEDFATYYCQQSYSNPYTFGGGTKVEIKR
Regarding B4, in assay [1], the binding result is reported as “no binding (tested: 300 nM)”. Further, the binding result in assay [2] is given as “no binding (tested: 300 nM)”. In assay [3], this molecule registered a dissociation constant (Kd) of 46.3 nM, a koff of 0.0102 s⁻¹ and a kon of 219000 M⁻¹ s⁻¹.

B5: COVID19_P06_G02 (scFv, V domains shown)
VH: QVQLVQSGAEVKKPGASVKVSCKASGYTFTSHDINWVRQAPGQGLEWMGMINPSGGYTSYAQNFQGRVTMTRDTSTSTVYMELSSLRSEDTAVYYCTREGIPALLRTLDYWGQGTLVTVSS
VL: DIQMTQSPSSLSASVGDRVTITCRASQGIRNDLGWYQQKPGKAPKLLIYAASSLQSGVPSRFSGSGSGTDFTLTISSLQPEDFATYYCQQTYTTPYTFGGGTKVEIKR
In the case of B5, the binding result in assay [1] was “no binding (tested: 300 nM)”. Also, the binding result in assay [2] is on record as “no binding (tested: 300 nM)”. In assay [3], the Kd worked out at 6.92 nM, the dissociation rate constant (koff) was found to be 0.0009 s⁻¹ and the kon was 130000 M⁻¹ s⁻¹.

B6: COVID19_P06_C09 (scFv, V domains shown)
VH: QVQLVQSGAEVKKPGASVKVSCKASGYTFTSYEINWVRQAPGQGLEWMGVINPSGGHTNYAQKFQGRVTMTRDTSTSTVYMELSSLRSEDTAVYYCTREGIPQLAGTLDYWGQGTLVTVSS
VL: DIQMTQSPSSLSASVGDRVTITCRASQSISGYLNWYQQKPGKAPKLLIYAASSLESGVPSRFSGSGSGTDFTLTISSLQPEDFATYYCQQGYTTPRTFGGGTKVEIKR
As to B6, the binding result in assay [1] is listed as “no binding (tested: 300 nM)”. Further, in assay [2], the binding result is reported as “no binding (tested: 300 nM)”. In assay [3], binding was characterised by a dissociation constant (Kd) of 2.47 nM, the off-rate (koff) stood at 0.00074 s⁻¹ and the kon turned out to be 300000 M⁻¹ s⁻¹.
